From the supplement of paper PMC10126150
± gives the standard deviation of the averaged measurements.

System: ATP
Experiment: switch fluorescence ratio, 500 uM ATP over buffer (Cy3 cluster intensity, sum of 5 cycles each) (fold (ratio)); higher = stronger signal-on switching upon ATP binding; sequences stand for … in TCGTCGGCAGCGTCAGATGTGTATAAGAGACAGTTTTTTTTTTTTTTTTTTTTTTTTT…TC
Details: aptamer strand: ATP DNA aptamer (quencher-CACCTGGGGGAGTATTGCGGAGGAAGG + anchor), 100 nM annealed; ATP concentration: 500 uM
Method in brief: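 The quencher-labelled ATP aptamer, at 100 nM, was annealed to Cy3-labelled switching-strand clusters on a modified Illumina MiSeq flow-cell. The clusters were imaged in selection buffer, then after 15 min with 500 uM ATP at 22 °C, and this buffer/ATP cycle ran five times with NaOH stripping and re-annealing between runs. Per-cluster fluorescence ratios, summed target-cycle over summed buffer-cycle Cy3 intensity, were averaged per switch-domain sequence. Clusters outside 100-1000 RFU were excluded.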
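Also: ATP exposure 15 min at 22 °C before imaging.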

Sequence | switch fluorescence ratio
AACCTGGTCG | 1.069 ± 0.0046
TTTGGTTCTG | 1.01 ± 0.012
TTGAGATGGT | 0.954 ± 0.017
TTTCGGGGGC | 0.993 ± 0.028
ACGGCTAGCG | 1.02 ± 0.022
GAACTTAAAA | 1.02 ± 0.045
AGGTAGAGTG | 0.948 ± 0.038
TCGTACAGTT | 1.03 ± 0.02
TCAAAGCAAA | 1.41 ± 0.077
ATCGTCGTGC | 0.975 ± 0.015
TTGCATATAG | 1.3 ± 0.065
GGCTGAAGAG | 1.02 ± 0.033
GGTCAGGGTC | 1.01 ± 0.062
TCTTTTTAGT | 1 ± 0.029
TGGGCCAAGC | 0.995 ± 0.025
CGTATCTATC | 1.007 ± 0.0065
CCAATATTCG | 1.09 ± 0.056
ATAATTTCAA | 0.999 ± 0.017
AGTGTAGAGC | 0.975 ± 0.017
GAGAGCCACC | 0.971 ± 0.061
TTTGAGACGG | 0.99 ± 0.019
ATTTTAGGCC | 1.1 ± 0.06
CAGGTGCGGG | 1.1694 ± 0.0009
TCGTTTCCGT | 0.984 ± 0.035
TTTGATACCT | 1.266 ± 0.0022

Sequence | switch fluorescence ratio
TTTTTATGAA | 1.011 ± 0.0019
AGATTTAAAG | 0.98 ± 0.034
TTTCGGTTCC | 1.05 ± 0.051
TTGTTATACG | 1.09 ± 0.079
GCGAGGGTGG | 1.02 ± 0.018
ACGGGCGCAG | 0.994 ± 0.017
ATAGTGATGT | 0.995 ± 0.04
AATGTTCTTT | 0.977 ± 0.062
GGATGATGA | 1.01 ± 0.061
AAATAAATTT | 1.01 ± 0.055
GGGAGAATAG | 0.985 ± 0.036
GCCAGTATGT | 1.08 ± 0.086
ATATTAGGCA | 1.01 ± 0.037
GGTCCGCATA | 2.82 ± 1.2
GCGGGGTCGT | 0.977 ± 0.032
CTGCGGGGGA | 1.03 ± 0.037
GTGCTGGGGG | 1.02 ± 0.02
TAATAACATG | 0.9691 ± 0.0038
GTGGGAAGGG | 0.996 ± 0.017
TGGGGTATTA | 0.998 ± 0.018
TGTCTTAGGA | 0.999 ± 0.019
ATTGGGTGTG | 0.987 ± 0.027
AGTCGTATTT | 0.963 ± 0.019
ATAGGAGTAT | 1.01 ± 0.026
AAAGGGTAAC | 0.988 ± 0.036

Sequence | switch fluorescence ratio
CAGTCATTCG | 0.99 ± 0.016
ACTGTTAGCA | 1.061 ± 0.0046
GGTTTTTTAT | 1.02 ± 0.019
GGATGATGGT | 0.985 ± 0.037
GACACGTGTT | 1.03 ± 0.045
GCGGTTTGAG | 0.933 ± 0.012
ATGTAACTCG | 1.03 ± 0.044
AGTCTAGAGA | 1.015 ± 0.0095
TCAGGGGCAT | 1.18 ± 0.3
TTTAGATACG | 1.05 ± 0.014
TTAAAGTGTT | 1.09 ± 0.16
ACAAAGGGAC | 1.06 ± 0.12
TATGTGAAAA | 0.9747 ± 0.006
ATTTTTCGAT | 1 ± 0.026
ACGGTATGTG | 1.03 ± 0.033
TTTTGATGCT | 0.998 ± 0.057
GTTGGTACGT | 1.01 ± 0.03
TTGGTACGGG | 1.01 ± 0.047
CTGGCCGGGC | 1.03 ± 0.022
TCATGGGTTG | 0.981 ± 0.0053
CACGGCAAGA | 1.89 ± 0.087
CGTTTCAAGA | 0.9759 ± 0.0019
GGATTCAGCT | 0.978 ± 0.027
TAATGTTTCG | 0.978 ± 0.013
GTTTTGGTTA | 1.01 ± 0.014

Sequence | switch fluorescence ratio
CCGGGCGACA | 1.11 ± 0.031
AAGGAGGCAC | 0.985 ± 0.021
GGGGGTCCCT | 1.01 ± 0.015
TCAAGGCACA | 1.089 ± 0.01
CAGAAGTTTG | 1 ± 0.034
CCGGCGGGCT | 1.05 ± 0.013
CTGGTAAAGA | 0.984 ± 0.015
TAGTCTACGA | 1.03 ± 0.026
TTTCACCCCT | 1.09 ± 0.067
GTGGATAGTC | 0.992 ± 0.066
CTTTCGGGCT | 1.01 ± 0.026
GTAGCGGGAG | 1.057 ± 0.0053
GTGACACACC | 1.15 ± 0.039
CTGGCGACAC | 1.39 ± 0.14
TATATCGGGG | 0.992 ± 0.03
GCCATTCATC | 1.02 ± 0.017
GGGGTTTCGG | 1.02 ± 0.087
AGTAGTGAGG | 0.979 ± 0.017
AGTAAAAGTT | 0.989 ± 0.052
GGATTGTATT | 1.02 ± 0.0055
CTGGGGAGCG | 0.954 ± 0.034
TTGGTATATA | 0.9879 ± 0.0069
TTTGCAGT | 1.1 ± 0.12
AGGCTTATAT | 1.01 ± 0.024
AGAAGCGTGG | 1.01 ± 0.025

Sequence | switch fluorescence ratio
CGTTGCGCCA | 1.02 ± 0.013
AAATGGGTTC | 0.9874 ± 0.0083
CGTTAGTTCT | 1 ± 0.029
CTGTCCGTTG | 1.01 ± 0.017
TTTTTGCTGG | 0.99 ± 0.029
GAATTTGGGG | 0.961 ± 0.03
GTAATTGGTG | 0.992 ± 0.014
TAGTAGAGCT | 1.009 ± 0.002
ACAAGTGACG | 0.988 ± 0.026
AGGGTCAACG | 1.018 ± 0.0099
GAATATTGTA | 0.988 ± 0.013
CGCGGGGTGT | 1.05 ± 0.03
CGACTAAAAG | 0.999 ± 0.042
GGCGAAAACT | 1.073 ± 0.0052
TCAAGTGCAG | 0.99 ± 0.027
TTGATATCTA | 0.982 ± 0.049
CTGCATGGTT | 1.01 ± 0.016
GCGTGAAGTA | 0.997 ± 0.012
TTTGATGGGC | 0.9911 ± 0.0075
GGGTTGAATG | 0.978 ± 0.014
AGGGTTTCCA | 1.01 ± 0.06
CCTTGGCGCG | 0.995 ± 0.035
ATGTTGGTAG | 0.985 ± 0.026
CGTAAAAAAT | 0.986 ± 0.068
GTGATCAGTG | 0.98698 ± 0.00016

Sequence | switch fluorescence ratio
TAAAATTTGT | 1.01 ± 0.05
CCGGAAGAGA | 1.09 ± 0.035
TCTCGGGCTT | 0.9873 ± 0.0047
GAGATTGTGT | 0.9936 ± 0.0048
ATGAATCTCG | 0.9898 ± 0.0075
GCTGAGGCTT | 0.9593 ± 0.0019
CCTGGGGTGT | 1.34 ± 0.28
ACTTTGAA | 1.01 ± 0.037
TGGGTGGGGG | 1 ± 0.024
CCTTCTCGTC | 1.34 ± 0.096
ATCGTGTG | 1.01 ± 0.038
TCGCTTACTG | 1.3 ± 0.053
TTCATTTGGT | 0.983 ± 0.025
TTACGGTTGC | 0.9665 ± 0.0024
ATTTACTAGA | 1.004 ± 0.0042
TTAGGTAGCA | 1.007 ± 0.0024
AAGTCAGAGC | 0.97 ± 0.097
TATTTAGTAG | 1.006 ± 0.0072
GGGGAGAATG | 0.9802 ± 0.0069
AACATTTTGC | 0.9941 ± 0.0069
TCGGTTTATA | 0.997 ± 0.01
TTGTACTTAC | 1.24 ± 0.048
TCGTGAACGT | 0.978 ± 0.011
ATAAAGCGAT | 1.06 ± 0.023
CGGAAGGCTA | 1.025 ± 0.0069

Sequence | switch fluorescence ratio
TTTACGGGTT | 0.988 ± 0.021
GAGGGTATAG | 1.02 ± 0.085
GCTCCATCGA | 1.11 ± 0.015
AGGTATAAGC | 0.994 ± 0.043
GTAGCGGGGT | 1.006 ± 0.0054
TCATGGGTAA | 1.01 ± 0.029
GCAGGGATAC | 3.4 ± 0.048
TGGTTAAGGT | 0.982 ± 0.033
GGATAGAGAA | 0.9789 ± 0.008
GTGCCTTAGG | 0.99797 ± 0.00039
GGAGTCATAC | 1.63 ± 0.035
GATTTTTTAC | 0.995 ± 0.037
GAAGATGGTT | 0.969 ± 0.018
ATTGGGTTGG | 0.998 ± 0.019
ACCTAGTAAA | 0.987 ± 0.025
GAAAAAAAGC | 1.01 ± 0.053
AAGGCTTAGT | 1.01 ± 0.052
TTCTATTCTT | 1.02 ± 0.026
GTGGCTATGG | 0.96188 ± 0.00027
TCATAGATCG | 1.01 ± 0.027
GCGGCGGAGG | 0.995 ± 0.032
AATATGAAGG | 1 ± 0.019
TCTGGTGGTT | 0.981 ± 0.01
TTCACTTTGA | 1.012 ± 0.0067
ATAATTAAGG | 0.99 ± 0.028

Sequence | switch fluorescence ratio
TCCGGGTGGG | 1.09 ± 0.079
TTGCGCGGAC | 2.34 ± 1.5
TACGCGGTTG | 1.07 ± 0.044
GAAGGGGTTT | 0.999 ± 0.03
GTTTAAGGCT | 1.02 ± 0.088
TGACGTTGAG | 0.9868 ± 0.0056
CCCTTTAGGG | 1.025 ± 0.0025
GTGGGAGGTG | 1 ± 0.046
TGAAAGGAAT | 1.13 ± 0.19
GGTGCGCCTT | 0.958 ± 0.013
ATGTGTGAAA | 1 ± 0.073
AAGTTGGGT | 0.95 ± 0.017
GGGGCTAATG | 1.01 ± 0.023
AACCCGCACC | 2.75 ± 0.12
ATTCCGGTGG | 0.989 ± 0.052
GTCGCTTGTC | 0.995 ± 0.023
TGACGGAAGG | 1 ± 0.032
ACCATGGGAA | 1.04 ± 0.022
ATCGCCTTGC | 1.163 ± 0.001
CATGCGGCTA | 1.05 ± 0.044
CATGGAGATT | 0.9866 ± 0.0092
TTCGGATTCG | 0.968 ± 0.03
CAGCTAGAGG | 1 ± 0.037
AAGTGCATGG | 0.986 ± 0.036
TTTGGCGTTT | 1.01 ± 0.024
